Reference: paper PMC3268748, “A novel cold-active β-D-galactosidase from the Paracoccus sp. 32d - gene cloning, purification and characterization” (Microbial Cell Factories, 2011)

Substrate: O=[N+]([O-])c1ccccc1O[C@@H]1O[C@H](CO)[C@H](O)[C@H](O)[C@H]1O
Assay: purified protein
Format: biochemical, Paracoccus sp. 32d
Conditions: 20 °C, 20 mM sodium phosphate pH 7.3, apparent Km, also measured at 10 and 30 °C

B1: BgaL; Paracoccus sp. 32d β-D-galactosidase (Paracoccus sp. 32d) (protein)
chain: MRVTQKLNHGWIFAEGAADPATPLAGETVTLPHNAVDLPLSYFDETSYQRAFTYQRVIAWDDAWQGRRVQLRFDGAMADNVVWVNGVQVVAHPDGYTPFVADLTDHLRPGDNLVTVRIDGSENPAIPPFGAQIDYLTYAGIYRDVWLMVLPERHLTNARILTPDALSDAKTVVIRPEVTAPGPVRARLLDGDREIAATEGEGELTLAGLTGLSLWSTDNPQLYTVELTLPDSGDVTTHRFGFRTAEWTPQGFLLNGQPMKLRGLNRHQSWAHQGYAAGRHAQERDAEIVRHDLCCNMVRTSHYPQSTWFLDRCDEIGLLVFEEIPGWQHIGDQAWQDRSVDNVRAMITRDWNHPSIVIWGVRINESPDNHDFYVRTNALARELDPTRAIGGVRCITDSEMLEDVYTMNDFILDESELPLINRPRTALRPTEEVTGIKKPVPYLVTEYNGHMFPTKAQDPELRQMEHVIRHLEVLNAAHGDPAISGCIGWCMFDYNTHKDFGAGDRICHHGVMDIWREPKFAAHAYGSQKPPSEGIVMEPVTFWARGERNIGGVLPLIVLTNCDEVEFECAGVTRRVGPDRERFPHLPRPPVIIDHRHISAEELGQWGMSWHPGRITGWLNGEQVALREYVADPLPTTLQIAPDRDTLPADGDIDLRVMLRALDQVGNRLPFLDAGIAVTVDGPARLIGPDLRMLQGGTTGMLLRLTGDAGTIRITARHPQFPEAVATVTVG
notes: E. coli LMG194, pBAD/Myc-His A with native stop codon (no tag), ion exchange purified; homodimer 161 kDa; GH2
- Km: 1180 ± 60 µM
- kcat: 138 ± 2.19 s⁻¹
- kcat/Km: 117000 M⁻¹ s⁻¹
